Results taken from PMC6174099.

Target: T1, Heat shock factor 1 (HSF1), wild-type, monomer (human), Q00613
T1 chain: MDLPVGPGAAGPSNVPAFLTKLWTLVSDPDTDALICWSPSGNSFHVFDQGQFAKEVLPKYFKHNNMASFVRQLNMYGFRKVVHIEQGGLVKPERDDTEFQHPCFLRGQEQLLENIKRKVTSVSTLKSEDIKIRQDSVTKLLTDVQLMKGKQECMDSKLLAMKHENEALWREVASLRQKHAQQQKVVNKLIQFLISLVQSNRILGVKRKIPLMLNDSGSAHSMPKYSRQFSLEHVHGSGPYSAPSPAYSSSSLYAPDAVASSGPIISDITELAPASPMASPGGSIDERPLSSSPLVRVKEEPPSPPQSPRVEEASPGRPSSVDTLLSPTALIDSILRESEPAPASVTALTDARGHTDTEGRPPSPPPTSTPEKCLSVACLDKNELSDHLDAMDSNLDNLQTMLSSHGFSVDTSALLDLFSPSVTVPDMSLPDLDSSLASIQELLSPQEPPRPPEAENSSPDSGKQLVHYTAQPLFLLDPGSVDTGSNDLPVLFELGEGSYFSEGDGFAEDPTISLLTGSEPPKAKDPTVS
Experiment: SEC
Conditions: remark: other sources report otherwise

stoichiometry N: 3
B1: Heat shock factor 1 (HSF1), wild-type, monomer, Q00613 1-529 (natural protein)
chain: MDLPVGPGAAGPSNVPAFLTKLWTLVSDPDTDALICWSPSGNSFHVFDQGQFAKEVLPKYFKHNNMASFVRQLNMYGFRKVVHIEQGGLVKPERDDTEFQHPCFLRGQEQLLENIKRKVTSVSTLKSEDIKIRQDSVTKLLTDVQLMKGKQECMDSKLLAMKHENEALWREVASLRQKHAQQQKVVNKLIQFLISLVQSNRILGVKRKIPLMLNDSGSAHSMPKYSRQFSLEHVHGSGPYSAPSPAYSSSSLYAPDAVASSGPIISDITELAPASPMASPGGSIDERPLSSSPLVRVKEEPPSPPQSPRVEEASPGRPSSVDTLLSPTALIDSILRESEPAPASVTALTDARGHTDTEGRPPSPPPTSTPEKCLSVACLDKNELSDHLDAMDSNLDNLQTMLSSHGFSVDTSALLDLFSPSVTVPDMSLPDLDSSLASIQELLSPQEPPRPPEAENSSPDSGKQLVHYTAQPLFLLDPGSVDTGSNDLPVLFELGEGSYFSEGDGFAEDPTISLLTGSEPPKAKDPTVS
